Substitutions are numbered along the chain they refer to. Each block holds one binder with its values, some of them ahead of it.
Assays:
[1] = target: T1, recombinant human KAAG1 (Kidney associated antigen 1) (human, UniProt Q9UBP8 1-84); assay: SPR (BioRad ProteOn XPR36): antibody captured on an anti-human IgG Fc surface, KAAG1 injected as analyte, 1:1 Langmuir fit
T1 construct: also called KAAG1 protein
T1 sequence: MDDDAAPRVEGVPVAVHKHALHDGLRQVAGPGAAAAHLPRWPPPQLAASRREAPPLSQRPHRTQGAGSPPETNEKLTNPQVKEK
Description: (§1) Immediately after the activation, a 13 μg/mL solution of anti-human IgG Fc fragment specific in 10 mM NaOAc pH 4.5 was injected in the analyte direction at a flow rate of 25 μL/min until approximately 8000 resonance units (RUs) were immobilized. Remaining active groups were quenched by a 300 s injection of 1M ethanolamine at 30 μL/min in the analyte direction, and this also ensures mock-activated interspots are created for blank referencing. The screening of the 3A4 variants for binding to KAAG1 occurred in two steps: an indirect capture of 3A4 variants from cell supernatant onto the anti-human IgG Fc fragment specific surface in the ligand direction(vertical) followed by a KAAG1 injection in the analyte direction. Firstly, one buffer injection for 30 s at 100 uL/min in the ligand direction was used to stabilize the baseline. […] Four to five 3A4 variants along with wild-type 3A4 were simultaneously injected in individual ligand channels for 240 s at flow 25 μL/min. […] The first ligand channel was left empty to use as a blank control if required. This 3A4 capture step was immediately followed by two buffer injections in the analyte direction to stabilize the baseline, and then the gel filtration purified KAAG1 was injected. For a typical screen, five KAAG1 concentrations (8, 2.66, 0.89, 0.29, and 0.098 nM) and buffer control were simultaneously injected in individual analyte channels at 50 μL/min for 120 s with a 600s dissociation phase, resulting in a set of binding sensorgrams with a buffer reference for each of the captured 3A4 variants. The anti-human IgG Fc fragment specific—3A4 complexes were regenerated by a 18 s pulse of 0.85% phosphoric acid for 18 s at 100 μL/min to prepare the anti-human IgG Fc fragment specific surface for the next injection cycle. Sensorgrams were aligned and double-referenced using the buffer blank injection and interspots, and the resulting sensorgrams were analyzed using ProteOn Manager software v3.0.

[2] = target: T1, recombinant human KAAG1 (Kidney …); assay: SPR (BioRad ProteOn XPR36); fold difference of KD relative to LcHc
Description: as §1

[3] = target: T1, recombinant human KAAG1 (Kidney …); assay: not described; list of antibodies generated

B1: humanized 3A4 antibody Lh1Hh2 (antibody, human IgG1, kappa, V domains shown)
VH: QIQLVQSGAEVKKPGASVKVSCKASGYTFTDDYMSWVRQAPGQGLEWMGDINPYNGDTNYNQKFKGRVTITADKSTSTAYMELSSLRSEDTAVYYCARDPGAMDYWGQGTLVTVSS
VL: DIVMTQTPLSLPVTPGEPASISCRSSQSLLHSNGNTYLEWYLQKPGQSPQLLIYTVSNRFSGVPDRFSGSGSGTDFTLKISRVEAEDVGVYYCFQGSHVPLTFGQGTKLEIKR
notes: Human IgG1/kappa
- Kd [1]: 211 pM
- koff [1]: 0.00119 s⁻¹
- kon [1]: 5.65e+06 M⁻¹ s⁻¹
- Fold diff. [2]: 13.2

B7: 4A2 anti-KAAG1 antibody (antibody, V domains shown)
VH: QVKLQQSGTELVRPGASVTLSCKASGYKFTDYEMHWVKQTPVHGLEWIGGIDPETGGTAYNQKFKGKAILTADKSSTTAYMELRSLTSEDSAVYYCISYAMDYWGQGTSVTVSS
VL: DIVMTQSPSSLAMSVGQKVTMNCKSSQSLLNNSNQKNYLAWYQQKPGQSPKLLLYFASTRESGVPDRFIGSGSGTYFTLTISSVQAEDLADYFCQQHYSTPLTFGAGTKLDLK
notes: Variable regions only; Isolated from a Fab library
- binding result [3]: binds

B9: 3A2 anti-KAAG1 antibody (antibody, V domains shown)
VH: EIQLQQSGPELVKPGASVKMSCKTSGYTFTDYNMHWVKQKPGQGLEWIGYINPYNDVTEYNEKFKGRATLTSDKSSSTAYMDLSSLTSDDSAVYFCAWFGLRQWGQGTLVTVST
VL: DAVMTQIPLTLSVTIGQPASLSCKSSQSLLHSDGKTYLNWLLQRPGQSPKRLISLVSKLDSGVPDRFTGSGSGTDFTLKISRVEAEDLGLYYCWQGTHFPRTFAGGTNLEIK
notes: as for B7
- binding result [3]: binds

B10: 3D3 anti-KAAG1 antibody (antibody, V domains shown)
VH: EVQLQQSVAELVRPGASVTLSCKASGYIFTDYEIHWVKQTPVHGLEWIGVIDPETGNTAFNQKFKGKATLTADISSSTAYMELSSLTSEDSAVYYCMGYSDYWGQGTTLTVSS
VL: DIVMTQSPSSLAVSIGQKVTMNCKSSQSLLNSNFQKNFLAWYQQKPGQSPKLLIYFASTRESSIPDRFIGSGSGTDFTLTISSVQAEDLADYFCQQHYSTPLTFGAGTKLELK
- binding result [3]: binds

B11: 3G12 anti-KAAG1 antibody (antibody, V domains shown)
VH: B10 VH with L20V, V42A
VL: DIVMTQSPKFMSTSVGDRVSITCKASQDVGTAVAWYQQKPGQSPELLIYWTSTRHTGVPDRFSGSGSGTDFTLTISSVQAEDLADYFCQQHYSIPLTFGAGTKLELR
notes: as for B7
- binding result [3]: binds

B12: 3F4 anti-KAAG1 antibody (antibody, V domains shown)
VH: B10 VH with V8G, I28T, N57S, F60Y, I74K, S75A
VL: DIVMTQSPSSLTVTAGEKVTMSCKSSQSLLNTSNQKNYLAWYQQKPGQSPKLLVYFASTRASGVPDRFIGSGSGTDFTLTISSVQAEDLADYFCQQHYSTPLTFGAGTKLELK
notes: as for B7
- binding result [3]: binds

B14: 3E9 anti-KAAG1 antibody (antibody, V domains shown)
VH: B10 VH with V8G, V18A, I28T, I34M, N57S, F60Y, I74K, S100A
VL: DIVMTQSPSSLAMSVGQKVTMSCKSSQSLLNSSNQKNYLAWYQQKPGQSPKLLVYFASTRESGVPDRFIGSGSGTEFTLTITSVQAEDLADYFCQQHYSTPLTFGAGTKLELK
notes: as for B7
- binding result [3]: binds

B15: 3B1 anti-KAAG1 antibody (antibody, V domains shown)
VH: B10 VH with E1Q, S7P, V8G, I28T, N57G, F60Y, A72T, I74K, S84R
VL: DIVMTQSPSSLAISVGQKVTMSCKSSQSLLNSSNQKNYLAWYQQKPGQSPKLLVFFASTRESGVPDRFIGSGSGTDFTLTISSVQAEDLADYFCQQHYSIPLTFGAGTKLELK
notes: as for B7
- binding result [3]: binds

B19: 3C3 anti-KAAG1 antibody (antibody, V domains shown)
VH: B10 VH with L11V, I28T, N57V, F60Y, K63R, K65R, G66D, A72T, I74K, Y95F
VL: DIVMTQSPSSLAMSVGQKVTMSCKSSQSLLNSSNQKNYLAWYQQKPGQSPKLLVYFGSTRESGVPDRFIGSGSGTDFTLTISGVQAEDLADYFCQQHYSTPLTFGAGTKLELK
notes: as for B7
- binding result [3]: binds

B24: chimeric 3A4 anti-KAAG1 antibody (mouse variable regions, human IgG1/kappa constant regions) (antibody, V domains shown)
VH: QIQLVQSGPEMVKPGASVKMSCKASGYTFTDDYMSWVKQSHGKSLEWIGDINPYNGDTNYNQKFKGKAILTVDKSSSTAYMQLNSLTSEDSAVYYCARDPGAMDYWGQGTSVTVSS
VL: DVVMTQTPLSLAVSLGDQASISCRSSQSLLHSNGNTYLEWYLQKPGQSPKLLIHTVSNRFSGVPDRFSGSGSGTDFTLKISRVEAEDLGVYYCFQGSHVPLTFGAGTRLELKR
notes: It is treated here as the same molecule; also called LcHc; murine 3A4 (LcHc)
- Kd [1]: 16 pM
- koff [1]: 0.000121 s⁻¹
- kon [1]: 7.72e+06 M⁻¹ s⁻¹

B25: 3E10 anti-KAAG1 antibody (antibody, V domains shown)
VH: EVQLQQSGPELVKPGASVKISCKASGDTFTDYYMNWVKQSHGKSLEWIGDINPNYGGITYNQKFKGKATLTVDTSSSTAYMELRGLTSEDSAVYYCQAYYRNSDYWGQGTTLTVSS
VL: DIVMTQAAPSVPVTPGESVSISCRSSKSLLHSNGNTYLYWFLQRPGQSPQLLIYRMSNLASGVPDRFSGSGSGTAFTLRISRVEAEDVGVYYCMQHLEYPYTFGGGTKLEIK
notes: as for B7
- binding result [3]: binds

Other lines, results leading:

- binding result [3]: binds
B2: 3F6 anti-KAAG1 antibody (antibody, V domains shown)
VH: EVQLQQSGPELVKPGASVKMSCKASGYIFTEYNIHWVKQKPGQGPEWIGNINPYNDVTEYNEKFKGKATLTSDKASSTAYMDLSSLTSEDSAVYYCARWGLRNWGQGTLVTVSA
VL: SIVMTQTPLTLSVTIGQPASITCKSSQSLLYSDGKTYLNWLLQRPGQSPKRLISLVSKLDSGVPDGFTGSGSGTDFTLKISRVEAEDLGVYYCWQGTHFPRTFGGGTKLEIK
notes: as for B7

- binding result [3]: binds
B3: 3E8 anti-KAAG1 antibody (antibody, V domains shown)
VH: B2 VH with G8V, A24T, I28T, I34M, D56N, A75S, M81L
VL: not shown
notes: as for B7

- binding result [3]: binds
B4: 3D1 anti-KAAG1 antibody (antibody, V domains shown)
VH: EVQLQESGPDLVKPSQSLSLTCTVTGFSITSGYGWHWIRQFPGDKLEWMGYISFNGDYNYNPSLKSRISITRDTSKNQFFLQLSSVTTEDTATYYCASSYDGLFAYWGQGTLVTVSA
VL: DIKMTQSPSSMYASLGERVTITCKASQDIHTYLNWFQQKPGKSPETLIYRANRLVDGVPSRFSGSGSGQDYSLTISSLEYEDMGIYYCLQYDEFPLTFGAGTKLELK
notes: as for B7

- binding result [3]: binds
B5: 3C2 anti-KAAG1 antibody (antibody, V domains shown)
VH: B4 VH with E1D, D44N, Y58S, S84N, T88S, T111P
VL: B4 VL with K3Q, I21L, T31N, E45K, Y49H, D56A, M83L, E93A
notes: as for B7

- binding result [3]: binds
B6: 3C4 anti-KAAG1 antibody (antibody, V domains shown)
VH: B4 VH with D44N, S53N, F54Y, N55D, D57H, Y58N, N59D, R72Q, S84N
VL: DIVMSQSPSSMYASLGERVTITCKASQDIHNFLNWFQQKPGKSPKTLIFRANRLVDGVPSRFSGSGSGQDYSLTISSLEFEDLGIYSCLQYDEIPLTFGAGTKLELR

- binding result [3]: binds
B8: 3E6 anti-KAAG1 antibody (antibody, V domains shown)
VH: B7 VH with K3Q, T9A, K28T, T30S, G57D, A59V, I69T, T77S, R84S
VL: B4 VL with K3Q, I21L, T31N, E45K, Y49H, D56A, M83L, E93A
notes: as for B7

- binding result [3]: binds
B13: 3B8 anti-KAAG1 antibody (antibody, V domains shown)
VH: B10 VH with V8G, I28T, N57D, F60Y, K63N, K65T, I74K, S100A
VL: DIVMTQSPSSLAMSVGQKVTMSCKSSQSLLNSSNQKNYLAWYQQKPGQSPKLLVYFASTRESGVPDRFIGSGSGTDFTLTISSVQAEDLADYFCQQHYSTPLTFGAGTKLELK
notes: as for B7

- binding result [3]: binds
B16: 3F7 anti-KAAG1 antibody (antibody, V domains shown)
VH: B10 VH with E1Q, V2A, Q3Y, V8G, I28T, N57D, F60Y, G66D, I74K, S75A
VL: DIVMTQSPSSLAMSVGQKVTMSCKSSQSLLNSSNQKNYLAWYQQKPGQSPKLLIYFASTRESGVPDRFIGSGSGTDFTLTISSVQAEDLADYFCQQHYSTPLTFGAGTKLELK
notes: as for B7

- binding result [3]: binds
B17: 3E12 anti-KAAG1 antibody (antibody, V domains shown)
VH: B10 VH with E1Q, V8E, R13K, T19K, I28T, N57D, F60Y, I74K, S85R, Y99H
VL: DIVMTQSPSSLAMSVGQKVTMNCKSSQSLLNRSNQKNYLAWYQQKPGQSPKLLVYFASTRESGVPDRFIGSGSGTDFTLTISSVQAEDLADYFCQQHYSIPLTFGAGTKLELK
notes: as for B7

- binding result [3]: binds
B18: 3B11 anti-KAAG1 antibody (antibody, V domains shown)
VH: B10 VH with I28T, I34M, H43R, E54A, N57D, F60Y, I74K, T78A, Y80F
VL: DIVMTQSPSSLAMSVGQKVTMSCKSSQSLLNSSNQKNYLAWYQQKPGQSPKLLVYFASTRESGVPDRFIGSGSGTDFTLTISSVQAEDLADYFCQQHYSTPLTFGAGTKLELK
notes: as for B7

- binding result [3]: binds
B20: 3G8 anti-KAAG1 antibody (antibody, V domains shown)
VH: B10 VH with E1Q, Q5K, V8G, I28T, I34V, E54A, N57D, F60Y, I74K, L83V
VL: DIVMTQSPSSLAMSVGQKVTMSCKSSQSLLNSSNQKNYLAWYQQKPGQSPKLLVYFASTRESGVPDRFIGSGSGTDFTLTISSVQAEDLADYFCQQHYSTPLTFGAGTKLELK
notes: as for B7

- binding result [3]: binds
B21: 3G5 anti-KAAG1 antibody (antibody, V domains shown)
VH: QVQLQQPGAELVRPGASVTLSCKASGYTFTDYEIHWVKQTPVHGLEWIGVLDPGTGRTAYNQKFKDKATLSADKSSSTAYMELSSLTSEDSAVYYCMSYSDYWGPGTTLTVSS
VL: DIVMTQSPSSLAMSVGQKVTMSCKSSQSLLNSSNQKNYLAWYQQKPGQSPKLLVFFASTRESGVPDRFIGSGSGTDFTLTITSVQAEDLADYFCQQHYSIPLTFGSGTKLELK
notes: as for B7

- binding result [3]: binds
B22: 3F10 anti-KAAG1 antibody (antibody, V domains shown)
VH: B10 VH with S17P, I28T, I34V, N57A, F60Y, I74K, T78A, S85R, G98S
VL: B12 VL with V13M, T14S, A15V, E17Q, K36L, R60T, A61E
notes: as for B7

- binding result [3]: binds
B23: 3A9 anti-KAAG1 antibody (antibody, V domains shown)
VH: QVQVQQPGAELVRPGASVTLSCKASGYIFTDYEVHWVRQRPVHGLEWIGVIDPETGDTAYNQKFKGKATLTADKSSSTAYMELSSLTAEDSAVYYCIGYADYWGQGTTLTVSS
VL: DIVMTQSPSSLAMSLGQKVTMSCKSSQSLLNSNNQLNYLAWYQQKPGQSPKLLVYFASTRKSGVPDRFIGSGSGTDFTLTITSVQAEDLADYFCQQHFNTPLTFGAGTKLELK
notes: as for B7
